Assay results from patent US20260027179A1, “ANTI-SYNUCLEINOPATHY PEPTIDE AND METHODS TO TREAT NEURODEGENERATIVE DISEASES” (University of British Columbia, priority 2021, published 2026).

Columns and labels:
endogenous α-synuclein [1] = biological target: T1, endogenous α-synuclein (Mus musculus, UniProt O55042); experiment: α-synuclein expression in peripheral and brain tissues after peptide injection; assay type: in vivo; conditions: 6 μmol/kg, i.p., 6 hours after peptide injection
T1 construct: from tissue; host or cells: kidney, spleen, ventral midbrain, striatum

human A53T α-synuclein = biological target: T2, human A53T α-synuclein (Homo sapiens, UniProt P37840, A53T); experiment: Brain α-synuclein ELISA in M83 transgenic mice after i.p. injection; assay type: in vivo, mouse; conditions: 40 mg/kg i.p.
T2 construct: tissue The Jackson Laboratory 004479; host or cells: brain of M83 hemizygous transgenic mice
Method: Tat-βsyn-degron peptide was also shown to decrease α-synuclein levels in vivo, using M83 transgenic mice that overexpress mutant human A53T α-synuclein. M83 mice, injected intra-peritoneally (i.p.) with 40 mg/kg Tat-βsyn-degron peptide, were sacrificed at time points of 6, 12, 24, and 48 hrs and α-synuclein levels in the brain were measured by ELISA.
Male M83 hemizygous mice overexpressing the human A53T α-synuclein mutant (12 weeks old, 25-30 g, 004479, The Jackson Laboratory) were housed individually and maintained on a 12/12 hrs light/dark cycle at 22° C. ambient temperature and with unlimited access to food and water. Housing, breeding, and procedures were performed according to the Canadian Council on Animal Care and were approved by the McGill University Animal Care Committee.
Brains were lysed (1 g tissue per 3 mL solution) in a buffer solution (50 mM Tris pH 8, 150 mM NaCl, 5 mM EDTA, 1% NP-40, 0.5% sodium deoxycholate, 0.1% SDS, protease and inhibitor cocktail [aprotinin, leupeptin and benzamidine], and phosphatase inhibitor cocktail) on ice. Lysates were homogenized at 1,600 g several times, sonicated and finally centrifuged at 100,000 g for 30 min. The supernatant was collected and processed with the Human α-synuclein ELISA kit (KHB0061, ThermoFisher Scientific) and analyzed with a Tecan microplate reader (Tecan Infinite M200 Pro, life science). The level of α-synuclein was expressed as ng/ml total sample.

endogenous α-synuclein [2] = biological target: T3, endogenous α-synuclein (Rattus norvegicus, UniProt P37377); experiment: Knockdown of endogenous α-synuclein in primary cortical neuron cultures, immunoblot; assay type: cell-based
T3 construct: endogenous in cells; host or cells: primary rat cortical neurons (14 DIV) and primary rat ventral midbrain neurons (3 DIV)
Method: Primary rat neuron cultures were prepared from embryos of pregnant Sprague-Dawley rats (E18). The experimental protocol was approved by the University of British Columbia Animal Care Committee. Briefly, the cortical tissue or ventral midbrain tissue was isolated into ice cold HBSS (Invitrogen, 14170-112) and then digested with 0.25% trypsin-EDTA at 37° C. for 30 min. After washing with warm DMEM (supplemented with 10% FBS) three times, neurons were suspended in neuron culture media and dissociated by trituration using varying sizes of pipettes. Neurons were then centrifuged, and the pellet was re-suspended in culture media, washed twice with culture media, and plated on the poly-D-lysine-coated plates. Neuron culture was maintained in the 37° C. incubator with […] and 5% CO2. The morning after culturing, 2/3 of the neuron culture media was replaced with fresh neuron culture media. Media was then replaced every 3-4 days. Primary rat cortical neuron culture was used 14 days in vitro (DIV) and primary rat ventral midbrain neuron culture was used 3 DIV.
Tat-βsyn-degron and Tat-βsyn peptides were first dissolved in sterile water as a 25 mM stock solution and then diluted directly in the neurobasal culture media to make the desired working concentration. 20 mM MPP+iodide stock solution was made freshly each time and diluted in the neurobasal culture media directly to make the desired working concentration. For 48 hrs treatment, neuron culture media containing MPP+ and peptides were replaced every 24 hrs.
Brain tissues or cultured cells were lysed on ice in the lysis buffer and then the solution was centrifuged at 14,000 rpm for 10 min at 4° C. Next, the supernatant was collected and protein concentrations were determined using a BCA protein assay kit (Thermo Scientific, 23227). Equal amount of protein samples was mixed with 4× sample buffer, boiled at 100° C. for 5 min, and separated on 10% sodium dodecyl sulphate-polyacrylamide gel electrophoresis (SDS-PAGE). Proteins were then transferred to Immobilon-PTM polyvinylidene fluoride (PVDF) membranes (Bio-Rad, 162-0177). The membranes were blocked with 5% non-fat milk in Tris-buffered saline containing 0.1% Tween-20 (TBST) for 1 hr at room temperature, and then incubated overnight at 4° C. with primary antibody. After washing 3×5 min in TBST, membranes were incubated with horseradish peroxidase-conjugated secondary antibody for 1 hr at room temperature. After another three washes with TBST, protein was visualized in the Bio-Rad Imager using ECL western blotting substrate (Pierce, 32016). The band density of each protein was quantified by the Bio-Rad Quantity One software and the relative optical density was analyzed relative to the loading control β-actin on the same membrane.

TH-positive neurons = experiment: Protection against MPP+ toxicity in ventral midbrain cultures (TH protein, TH-positive neuron counting); assay type: cell-based, rat; conditions: 25 μM, 48 hrs, MPP+ 20 μM
Method: Primary rat neuron cultures were prepared from embryos of pregnant Sprague-Dawley rats (E18). The experimental protocol was approved by the University of British Columbia Animal Care Committee. Briefly, the cortical tissue or ventral midbrain tissue was isolated into ice cold HBSS (Invitrogen, 14170-112) and then digested with 0.25% trypsin-EDTA at 37° C. for 30 min. After washing with warm DMEM (supplemented with 10% FBS) three times, neurons were suspended in neuron culture media and dissociated by trituration using varying sizes of pipettes. […]
Neurons were then washed 6×2 min in PBS, and incubated in Alexa Fluor 488 (Life technologies, A-11034; 1:500 dilution in 3% BSA/PBS) for 45 min at 37° C. without agitation. […] Neurons were then imaged with the Zeiss Axio Observer D1 microscope at 20× and 10 fields of view per coverslip were randomly selected and counted. […]
Brain tissues or cultured cells were lysed on ice in the lysis buffer and then the solution was centrifuged at 14,000 rpm for 10 min at 4° C. Next, the supernatant was collected and protein concentrations were determined using a BCA protein assay kit (Thermo Scientific, 23227). […] The band density of each protein was quantified by the Bio-Rad Quantity One software and the relative optical density was analyzed relative to the loading control β-actin on the same membrane.

YGRKKRRQRRRRTKSGVYLVGRRRG (The sequence is synthesized (YGRKKRRQRRRRTKSGVYLVGRRRG)) [Tat-βsyn-degron]
α-synuclein expression in the kidney (endogenous α-synuclein [1]): significantly reduce the α-synuclein expression | α-synuclein expression in the spleen (endogenous α-synuclein [1]): significantly reduce the α-synuclein expression | α-synuclein expression in the striatum (endogenous α-synuclein [1]): significantly reduce the α-synuclein expression | α-synuclein expression in the ventral midbrain (endogenous α-synuclein [1]): significantly reduce the α-synuclein expression | time of peak effect on brain α-synuclein (human A53T α-synuclein): around 24 hrs | α-synuclein levels in the brain (ELISA) (human A53T α-synuclein; 12 hrs): reduction of α-synuclein levels | α-synuclein levels in the brain (ELISA) (human A53T α-synuclein; 24 hrs): reduction of α-synuclein levels | time course of knockdown of endogenous α-synuclein (endogenous α-synuclein [2]; 50 μM bath application, primary cortical cultures): induced a time-dependent knockdown of endogenous α-synuclein | endogenous α-synuclein protein levels (endogenous α-synuclein [2]; bath application 24 hrs, 5-50 μM (control 50 μM), cortical neuron cultures): robust reduction of endogenous α-synuclein protein levels in a dose-dependent manner | numbers of TH-positive neurons after MPP+ (TH-positive neurons; blinded counting): almost fully protected dopaminergic neurons | TH protein levels after MPP+ (TH-positive neurons; immunoblot): rescue of TH protein levels
